From publication PMC12445016 (Nature, 2025)

T1: preactivated arrestin3 (truncated after residue 392) (bovine, UniProt P32120)
T1 chain: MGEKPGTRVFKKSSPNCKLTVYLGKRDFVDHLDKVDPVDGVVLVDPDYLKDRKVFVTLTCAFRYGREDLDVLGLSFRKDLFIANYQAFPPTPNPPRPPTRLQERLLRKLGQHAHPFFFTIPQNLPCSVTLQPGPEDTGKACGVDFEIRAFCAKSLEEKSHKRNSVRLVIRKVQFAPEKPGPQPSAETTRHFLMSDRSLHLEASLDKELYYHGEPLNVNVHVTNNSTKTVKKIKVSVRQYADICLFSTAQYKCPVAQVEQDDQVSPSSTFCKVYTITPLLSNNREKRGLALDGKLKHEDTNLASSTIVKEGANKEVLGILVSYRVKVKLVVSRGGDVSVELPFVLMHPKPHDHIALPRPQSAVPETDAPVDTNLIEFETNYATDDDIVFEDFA

T2: biotinylated Arr3* loaded with inositol hexakisphosphate (IP6) (bovine, UniProt P32120, biotin (EZ-link sulfo-NHS-Biotin; sites not stated))
T2 chain: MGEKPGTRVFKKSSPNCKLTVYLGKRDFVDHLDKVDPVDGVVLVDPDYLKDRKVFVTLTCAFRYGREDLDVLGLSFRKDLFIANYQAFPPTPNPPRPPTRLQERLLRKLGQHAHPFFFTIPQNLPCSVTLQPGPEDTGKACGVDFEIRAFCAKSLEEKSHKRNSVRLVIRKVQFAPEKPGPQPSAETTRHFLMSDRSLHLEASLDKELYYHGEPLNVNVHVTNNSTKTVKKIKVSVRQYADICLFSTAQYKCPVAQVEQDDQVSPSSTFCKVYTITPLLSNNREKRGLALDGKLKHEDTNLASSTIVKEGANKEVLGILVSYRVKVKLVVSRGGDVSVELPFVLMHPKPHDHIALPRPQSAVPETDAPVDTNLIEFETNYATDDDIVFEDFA


Tests used:
[1] = target: GRK5-phosphorylated ACKR3·CXCL12_(LRHQ) (UniProt P25106); experiment: pull-down
[2] = target: T1, preactivated arrestin3 (truncated after …); experiment: ELISA
[3] = target: T2, biotinylated Arr3* loaded with inositol …; experiment: ELISA

Row | percent more pulled down than by pACKR3 (GRK2) [1] | IC50 [2] | EC50 [3] | Molecule
1 | 40% | – | – | preactivated arrestin3 (truncated after residue 392) (from UniProt P32120 1-392) (domain or fragment)
2 | 30% | – | – | preactivated arrestin2 (I386A, V387A, F388A mutations in its C-tail) (from UniProt P17870 1-418) (natural protein)
3 | – | ~90 nM | ~10 nM | Fab7 (antigen binding fragment that recognizes active arrestin2 and arrestin3) (Fab, V domains shown) VH: EVQLVESGGGLVQPGGSLRLSCAASGFNVSSSYIHWVRQAPGKGLEWVASISSYYGYTYYADSVKGRFTISADTSKNTAYLQMNSLRAEDTAVYYCARKSMYHRGWGWLSWVYGAMDYWGQGTLVTVSS VL: DIQMTQSPSSLSASVGDRVTITCRASQSVSSAVAWYQQKPGKAPKLLIYSASSLYSGVPSRFSGSRSGTDFTLTISSLQPEDFATYYCQQSYYYPITFGQGTKVEIK
